Values quoted from earlier work as cited in patent US7744870B1, “ST receptor binding compounds and methods of using the same” (Thomas Jefferson University, priority 1993, dated 2010).
Ends that are not written are not given here.

Tests used:
[1] = biological target: T1, ST receptor (Homo sapiens, UniProt P25092); details: reported in cited literature; cited from earlier work
T1 construct: a preparation of ST receptors (e.g. intestinal membranes from rat intestine, human intestine, T84 cells); from tissue; host or cells: human intestinal membranes
T1 sequence (P25092 24-1073): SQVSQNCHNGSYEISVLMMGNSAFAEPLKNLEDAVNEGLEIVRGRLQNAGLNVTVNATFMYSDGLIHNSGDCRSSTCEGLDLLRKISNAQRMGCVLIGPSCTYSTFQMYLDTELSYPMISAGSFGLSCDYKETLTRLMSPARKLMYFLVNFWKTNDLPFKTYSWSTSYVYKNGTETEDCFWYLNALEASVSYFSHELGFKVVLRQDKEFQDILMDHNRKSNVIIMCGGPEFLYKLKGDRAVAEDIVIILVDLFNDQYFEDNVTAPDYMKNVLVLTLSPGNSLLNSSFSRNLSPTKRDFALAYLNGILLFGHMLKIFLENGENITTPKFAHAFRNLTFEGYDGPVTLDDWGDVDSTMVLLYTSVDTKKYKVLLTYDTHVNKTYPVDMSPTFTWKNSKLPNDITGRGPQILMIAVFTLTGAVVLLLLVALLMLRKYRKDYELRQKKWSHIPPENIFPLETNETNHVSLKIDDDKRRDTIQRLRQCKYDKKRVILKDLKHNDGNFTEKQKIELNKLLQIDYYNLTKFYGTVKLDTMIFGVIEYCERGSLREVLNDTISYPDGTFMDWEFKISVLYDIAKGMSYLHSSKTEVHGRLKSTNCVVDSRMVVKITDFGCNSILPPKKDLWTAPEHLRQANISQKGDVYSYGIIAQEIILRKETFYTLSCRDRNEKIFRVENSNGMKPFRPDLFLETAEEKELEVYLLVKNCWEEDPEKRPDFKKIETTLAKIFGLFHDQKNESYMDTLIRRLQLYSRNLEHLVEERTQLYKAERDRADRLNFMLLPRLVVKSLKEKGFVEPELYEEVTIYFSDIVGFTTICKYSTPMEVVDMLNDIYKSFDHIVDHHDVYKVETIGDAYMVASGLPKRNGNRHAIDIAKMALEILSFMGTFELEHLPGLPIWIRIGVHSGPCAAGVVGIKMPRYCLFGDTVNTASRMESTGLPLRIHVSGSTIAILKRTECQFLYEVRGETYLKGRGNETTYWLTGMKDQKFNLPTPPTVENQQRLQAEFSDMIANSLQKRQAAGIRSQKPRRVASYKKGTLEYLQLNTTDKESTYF

[2] = biological target: guanylate cyclase (Homo sapiens, UniProt P25092); details: relative to native ST; cited from earlier work
Chain of guanylate cyclase (P25092 24-1073): as above

SEQ ID NO:47: 16 amino acid peptide derived from V. cholerae (IDCCICCNPACFGCLN; listed as Vibrio cholerae)
binds to the ST receptor [1]: binds to the ST receptor

SEQ ID NO:48: 18 amino acid peptide derived from Y. enterocolitica (SSDWDCCDVCCNPACAGC; listed as Yersinia enterocolitica)
binds to the ST receptor [1]: binds to the ST receptor

guanylin (PGTCEICAYAACTGC; ends and bridges not checked; cysteine pairing not given here; UniProt Q02747 101-115, looked up)
activates guanylate cyclase at a level less than native ST [2]: 10- to 100 fold | binds to the ST receptor [1]: binds to ST receptors
